From patent US7611693B2, “Mechanism-based targeted pancreatic beta cell imaging and therapy” (Board of Regents, The Univerisity of Texas System, priority 2003, dated 2009)

What was measured:
[1] = Animal studies: acute toxicity at the given doses; type: in vivo
From the text: (§1) The present disclosure addresses at least in part some deficiencies in the prior art by providing novel DTPA-antidiabetic conjugates useful for imaging beta-cell function. Through binding of radiolabeled conjugates, such as ^99mTc-DTPA-antidiabetic conjugates, for example, to pancreatic beta receptors, detectable by gamma scintigraphy, pancreatic function is monitored. Four DTPA-antidiabetic conjugates have been synthesized and evaluated. […] These agents are labeled with isotopes in order to assess beta cell function in diabetic or insulinoma patients both pre- and post-treatment. These compositions and methods are useful to provide early diagnosis as well as monitoring of response of pancreatic disease during treatment.

pancreas [2] = conditions: rat, in vivo, iv
From the text: FIG. 47 is a graphical representation comparing pancreas uptake for ^99mTc-DTPA and ^99mTc-DTPA-NGN in breast tumor-bearing rats (n=3/time interval, 20 μCi, IV, p=0.11, 0.05, and 0.01).
FIG. 48 is a graphical representation of pancreas to muscle count density ratio of ^99mTc-DTPA and ^99mTc-NGN in breast tumor bearing rats (n=3/time interval, μCi/rat, IV, p=0.19, 0.19, and 0.029).
Male (n=4) New Zealand white rabbits (Raynichols Rabbitry, Lumberton, Tex.) were inoculated with VX-2 cells (rabbit driven mammary squamous cell carcinoma). At day 14 post-inoculation, scintigraphic imaging studies were conducted with ^99mTc-DTPA-NGN (1 mCi, iv). Computer outlined region of interest was used to analyze target-to-nontarget ratios.

pancreatic beta cells = test: Animal studies: selective imaging of pancreatic beta cells; type: in vivo
From the text: as §1

pancreas [3] = test: Scintigraphic imaging in rodents (planar gamma imaging); type: in vivo; conditions: normal rat and 13762 tumor-bearing rats, 300 μCi via tail vein, FIGS. 36-44
Method: Scintigraphic imaging in rodents was conducted as follows:
Female Fischer 344 rates (150-175 g) (Harlan Sprague-Dawley, Inc., Indianapolis, Ind.) were inoculated subcutaneously in the right leg with breast cancer cells (10^6 cells/rat) from the 13762 NF cell line (known as DMBA-induced breast cancer cell line). Scintigraphic imaging was serially performed on day 14 after inoculation. Planar images were obtained at 0.5, 1 and 2 hours after injection of 300 μCi of ^99mTc-DTPA-NGN or ^99mTc-DTPA-GLP via tail vein. Control groups were given ^99mTc-DTPA. Imaging was conducted with a gamma camera from Digirad (2020tc Imager, San Diego, Calif.) equipped with a low-energy parallel-hole collimator. The field of view is 20 cm×20 cm with an edge of 1.3 cm. The intrinsic spatial resolution is 3 mm and the matrix is 64×64. The system is designed for a planar image with sensitivity of 56 counts/second (cps)/MBq and spatial resolution of 7.6 mm.

**Q.** Which acute toxicity [1] does the source give for CC(C)[C@H]1CC[C@H](C(=O)N[C@H](Cc2ccccc2)C(=O)NCCNC(=O)CN(CCN(CCN(CC(=O)O)CC(=O)NCCNC(=O)[C@@H](Cc2ccccc2)NC(=O)[C@H]2CC[C@H](C(C)C)CC2)CC(=O)O)CC(=O)O)CC1 [DTPA-nateglinide, DTPA-Nateglinide] here?
**A.** no acute toxicity

**Q.** For CC(C)[C@H]1CC[C@H](C(=O)N[C@H](Cc2ccccc2)C(=O)NCCNC(=O)CN(CCN(CCN(CC(=O)O)CC(=O)NCCNC(=O)[C@@H](Cc2ccccc2)NC(=O)[C@H]2CC[C@H](C(C)C)CC2)CC(=O)O)CC(=O)O)CC1 [^99mTc-DTPA-nateglinide, metal not drawn], which “pancreas uptake compared with control groups” value (pancreas [2]) is on record?
**A.** pancreas uptake was higher than control groups

**Q.** For DTPA-Glipizide, which “selective imaging of pancreatic beta cells” value (pancreatic beta cells) is on record?
**A.** able to selectively image pancreatic beta cells

**Q.** For ^99mTc-DTPA-glipizide, which “visualization of pancreas by planar scintigraphy” value (pancreas [3]) is on record?
**A.** pancreas could be visualized
